Laboratory results as given in PMC2943043 (Journal of neuroimmunology, 2010).

Biological target: Human recombinant voltage-dependent anion channel (human, UniProt P21796 1-283)
Experiment: radioligand binding

Human recombinant voltage-dependent anion channel, sequence (P21796 whole entry): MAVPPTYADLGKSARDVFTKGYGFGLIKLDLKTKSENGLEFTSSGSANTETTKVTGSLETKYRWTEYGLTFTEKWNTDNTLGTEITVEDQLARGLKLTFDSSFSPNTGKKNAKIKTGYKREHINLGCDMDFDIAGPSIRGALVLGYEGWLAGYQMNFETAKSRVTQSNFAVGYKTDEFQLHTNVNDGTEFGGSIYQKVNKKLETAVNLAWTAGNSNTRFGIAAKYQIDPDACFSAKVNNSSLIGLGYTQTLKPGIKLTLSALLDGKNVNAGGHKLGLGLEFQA

## MIAAQLLAYYFTELKDDQVKKC [HK-I peptide Met1-Lys21 (P2)]
  binding result: binds
